# Source: patent publication US20090191211A1 (ONCOTHERAPY SCIENCE, published 2009)
# Target: T1, EphA4 (Eph receptor A4) (human, UniProt P54764 20-986)
# T1 construct: Endogenous EphA4 on the human pancreatic cancer cell line MIAPaca-2 (over-expressing); also called EpbA4
# Assay: flow cytometry on EphA4 over-expressing MIAPaca-2 cells
# Description: Cancer cells (5×10⁶) were incubated at 4° C. for 30 minutes with the purified polyclonal antibody (pAb), monoclonal antibodies (mAb), rabbit IgG (the control for pAb) or mouse IgG (the control for mAb). Cells were washed with phosphate buffer solution (PBS) and then incubated at 4° C. for 30 minutes in FITC-labeled Alexa Fluor 488. The cells were again washed in PBS, and analyzed on a flow cytometer (FACSCalibur®, Becton Dickinson) and then analyzed by BD CellQuest™ Pro software (Becton Dickinson). Mean fluorescence intensity (MFI) was defined as a ratio of the flow cytometric intensity (intensity by each protein specific antibody/intensity by rabbit IgG).
# Using EphA4 over-expressing cells, the binding ratios of anti-EphA4 antibodies on the cell surface were investigated.
# T1 sequence (P54764 20-986): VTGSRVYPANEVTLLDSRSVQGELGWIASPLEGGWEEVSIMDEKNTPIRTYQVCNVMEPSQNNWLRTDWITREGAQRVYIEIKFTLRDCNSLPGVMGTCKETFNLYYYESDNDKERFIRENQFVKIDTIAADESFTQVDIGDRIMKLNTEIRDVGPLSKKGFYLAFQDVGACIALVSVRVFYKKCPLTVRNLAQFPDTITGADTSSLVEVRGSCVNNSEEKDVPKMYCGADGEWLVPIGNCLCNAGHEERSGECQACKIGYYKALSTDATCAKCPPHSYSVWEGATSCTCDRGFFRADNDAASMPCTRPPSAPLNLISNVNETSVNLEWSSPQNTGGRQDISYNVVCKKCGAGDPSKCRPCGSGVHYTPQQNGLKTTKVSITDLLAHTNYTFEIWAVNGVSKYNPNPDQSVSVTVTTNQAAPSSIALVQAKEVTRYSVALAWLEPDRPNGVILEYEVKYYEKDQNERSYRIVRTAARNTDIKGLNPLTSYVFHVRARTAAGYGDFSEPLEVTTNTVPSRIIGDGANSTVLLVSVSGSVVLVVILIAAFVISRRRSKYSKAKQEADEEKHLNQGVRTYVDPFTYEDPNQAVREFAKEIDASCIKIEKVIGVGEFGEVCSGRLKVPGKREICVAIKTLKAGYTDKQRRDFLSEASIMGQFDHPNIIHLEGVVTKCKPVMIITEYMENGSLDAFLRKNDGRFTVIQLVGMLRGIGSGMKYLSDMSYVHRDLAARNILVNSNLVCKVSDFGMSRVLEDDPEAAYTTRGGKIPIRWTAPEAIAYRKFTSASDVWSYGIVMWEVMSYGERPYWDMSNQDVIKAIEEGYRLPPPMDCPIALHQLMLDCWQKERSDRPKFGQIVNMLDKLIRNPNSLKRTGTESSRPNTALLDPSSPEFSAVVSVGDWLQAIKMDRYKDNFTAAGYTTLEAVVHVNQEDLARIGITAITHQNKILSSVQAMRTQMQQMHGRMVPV
row,MFI,Binder
1,12.6 ratio (intensity by specific antibody / intensity by control IgG),"anti-EphA4 human antibody 65 (antibody, V domains shown, also called clone 65) VH: QVQLVQSGAEVKKPGASVKVSCKVSGYTLTELSMHWVRQAPGKGLEWMGGFDPEDGETIYAQKFQGRVTMTEDTSTDTAYMELSSLRSEDTAVYYCATAQPFHWGDDAFDIWGQGTMVTVSS VL: not shown"
2,15.5 ratio (intensity by specific antibody / intensity by control IgG),"anti-EphA4 human antibody 336 (antibody, V domains shown) VH: QVQLQQSGPGLVKPSQTLSLTCAISGDSVSSNSAAWNWIRQSPSRGLEWLGRTYYRSKWYNDYAVSVKSRITINPDTSKNQFSLQLNSVTPEDTAVYYCARDSLRSFDYWGQGTLVTVSS VL: QSVLTQPPSVSAAPGQKVTISCSGSSSNIGNNYVSWYQQLPGTAPKLLIYDNNKRPSGIPDRFSGSKSGTSATLGITGLQTGDEADYYCGTWDSSLSAVVFGGGTKLTVLG"
